Assay results published in article PMC12281484, “Targeted O‑GlcNAcylation of CK2α Triggers Its Ubiquitin-Proteasome Degradation and Alters Downstream Phosphorylation” (ACS Chemical Biology, 2025).

Molecular target: T1, HTN-CK2α^WT with O-GlcNAcylation at Ser347 induced by OGTAC-1 (cells co-expressing fOGT) (UniProt P68400 1-391, O-GlcNAc at Ser347 (level increased by about 2-fold with 100 nM OGTAC-1 at 8 h))
T1 construct: casein kinase II subunit α (CK2α); Same construct as m1; only a part of the copies is modified (the level is raised over the baseline, not complete); also called HTN-CK2α (OGTAC-1 treated); CK2α with higher O-GlcNAcylation level; source: transfected cells co-expressing fOGT, treated with OGTAC-1 for 8 h, in lysate; not shown: HaloTag, N-terminal, kept
Test: co-IP; Flag-CRBN, HTN-CK2α (WT or S347A) and fOGT (WT or K852A) overexpressed in cells; DMSO or 100 nM OGTAC-1 for 8 h; HaloTrap IP; anti-FlagTag and anti-HA-Tag blots
Conditions: partners not purified

T1 sequence (P68400 whole entry): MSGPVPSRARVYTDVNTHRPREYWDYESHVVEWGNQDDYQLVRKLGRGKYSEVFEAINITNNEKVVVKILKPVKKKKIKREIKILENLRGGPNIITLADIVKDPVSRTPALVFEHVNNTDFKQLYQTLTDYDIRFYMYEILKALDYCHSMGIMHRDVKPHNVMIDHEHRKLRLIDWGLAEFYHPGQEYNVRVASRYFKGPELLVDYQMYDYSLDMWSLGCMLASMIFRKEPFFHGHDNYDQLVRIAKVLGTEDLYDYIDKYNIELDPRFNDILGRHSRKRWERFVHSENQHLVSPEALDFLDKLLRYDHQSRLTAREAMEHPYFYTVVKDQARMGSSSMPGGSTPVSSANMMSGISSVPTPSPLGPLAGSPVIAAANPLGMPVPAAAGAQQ

B1: Flag-CRBN (cereblon) (natural protein, UniProt Q96SW2 1-442, looked up)
chain: MAGEGDQQDAAHNMGNHLPLLPAESEEEDEMEVEDQDSKEAKKPNIINFDTSLPTSHTYLGADMEEFHGRTLHDDDSCQVIPVLPQVMMILIPGQTLPLQLFHPQEVSMVRNLIQKDRTFAVLAYSNVQEREAQFGTTAEIYAYREEQDFGIEIVKVKAIGRQRFKVLELRTQSDGIQQAKVQILPECVLPSTMSAVQLESLNKCQIFPSKPVSREDQCSYKWWQKYQKRKFHCANLTSWPRWLYSLYDAETLMDRIKKQLREWDENLKDDSLPSNPIDFSYRVAACLPIDDVLRIQLLKIGSAIQRLRCELDIMNKCTSLCCKQCQETEITTKNEIFSLSLCGPMAAYVNPHGYVHETLTVYKACNLNLIGRPSTEHSWFPGYAWTVAQCKICASHIGWKFTATKKDMSPQKFWGLTRSALLPTIPDTEDEISPDKVILCL
notes: cereblon (CRBN), plasmid bought from Addgene; source: co-IP methods: HeLa or HEK293T
- fold change of co-IPed CRBN over the DMSO treatment: ~2 fold
